Experimental data from article PMC12781872, “Differential association of primary and alternative σ factors with RNA polymerase of Mycobacterium tuberculosis during transcription elongation” (Nucleic Acids Research, 2026).

Target: T1, Mycobacterium tuberculosis RNA polymerase core (α2ββ'ω), wildtype (Mycobacterium tuberculosis, UniProt P9WGZ1;P9WGY9;P9WGY7;P9WGY5)
T1 construct: also called Mtb RNAP core; unlabelled RNAP core; copies: 2 + + +
Test: native gel or EMSA
Conditions: both partners purified

T1 sequence (P9WGZ1 whole entry, chain 1 of 4): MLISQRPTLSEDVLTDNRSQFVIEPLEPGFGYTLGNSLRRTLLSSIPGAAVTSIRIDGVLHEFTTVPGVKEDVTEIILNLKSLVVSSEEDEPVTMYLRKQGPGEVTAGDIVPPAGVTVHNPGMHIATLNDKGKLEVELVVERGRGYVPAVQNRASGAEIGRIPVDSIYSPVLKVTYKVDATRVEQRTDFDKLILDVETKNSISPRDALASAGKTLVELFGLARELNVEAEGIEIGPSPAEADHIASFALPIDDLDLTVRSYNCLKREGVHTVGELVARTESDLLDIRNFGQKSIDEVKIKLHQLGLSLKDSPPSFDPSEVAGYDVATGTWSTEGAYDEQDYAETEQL
T1 sequence (P9WGY9 whole entry, chain 2 of 4): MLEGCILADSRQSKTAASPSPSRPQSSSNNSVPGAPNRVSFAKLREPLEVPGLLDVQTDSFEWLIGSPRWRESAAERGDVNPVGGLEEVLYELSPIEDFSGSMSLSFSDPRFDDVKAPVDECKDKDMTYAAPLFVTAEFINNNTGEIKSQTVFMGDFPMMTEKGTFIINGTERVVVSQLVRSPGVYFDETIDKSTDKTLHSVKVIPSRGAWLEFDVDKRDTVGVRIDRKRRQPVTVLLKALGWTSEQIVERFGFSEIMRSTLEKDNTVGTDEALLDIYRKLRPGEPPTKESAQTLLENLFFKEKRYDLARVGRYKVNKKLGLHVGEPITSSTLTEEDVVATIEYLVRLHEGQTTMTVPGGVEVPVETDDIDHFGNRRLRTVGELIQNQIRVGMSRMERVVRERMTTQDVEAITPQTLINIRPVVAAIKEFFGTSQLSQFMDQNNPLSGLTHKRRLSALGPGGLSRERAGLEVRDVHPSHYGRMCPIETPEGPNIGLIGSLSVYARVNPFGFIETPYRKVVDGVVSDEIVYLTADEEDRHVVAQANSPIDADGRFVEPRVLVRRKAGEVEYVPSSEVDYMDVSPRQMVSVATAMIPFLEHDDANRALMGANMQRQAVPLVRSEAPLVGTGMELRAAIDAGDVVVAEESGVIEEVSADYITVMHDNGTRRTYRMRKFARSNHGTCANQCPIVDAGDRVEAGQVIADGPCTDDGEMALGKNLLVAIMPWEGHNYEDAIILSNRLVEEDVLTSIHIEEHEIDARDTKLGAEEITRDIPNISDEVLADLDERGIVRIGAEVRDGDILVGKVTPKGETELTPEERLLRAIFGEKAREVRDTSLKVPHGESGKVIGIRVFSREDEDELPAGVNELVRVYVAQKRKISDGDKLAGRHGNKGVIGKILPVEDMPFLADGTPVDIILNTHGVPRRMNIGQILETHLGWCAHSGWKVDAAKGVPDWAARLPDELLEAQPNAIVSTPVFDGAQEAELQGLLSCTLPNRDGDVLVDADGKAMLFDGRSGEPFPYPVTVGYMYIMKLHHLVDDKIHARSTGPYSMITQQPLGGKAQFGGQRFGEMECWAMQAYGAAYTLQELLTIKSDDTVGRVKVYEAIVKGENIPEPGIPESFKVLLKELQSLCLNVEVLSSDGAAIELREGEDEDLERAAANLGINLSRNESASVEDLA
T1 sequence (P9WGY7 whole entry, chain 3 of 4): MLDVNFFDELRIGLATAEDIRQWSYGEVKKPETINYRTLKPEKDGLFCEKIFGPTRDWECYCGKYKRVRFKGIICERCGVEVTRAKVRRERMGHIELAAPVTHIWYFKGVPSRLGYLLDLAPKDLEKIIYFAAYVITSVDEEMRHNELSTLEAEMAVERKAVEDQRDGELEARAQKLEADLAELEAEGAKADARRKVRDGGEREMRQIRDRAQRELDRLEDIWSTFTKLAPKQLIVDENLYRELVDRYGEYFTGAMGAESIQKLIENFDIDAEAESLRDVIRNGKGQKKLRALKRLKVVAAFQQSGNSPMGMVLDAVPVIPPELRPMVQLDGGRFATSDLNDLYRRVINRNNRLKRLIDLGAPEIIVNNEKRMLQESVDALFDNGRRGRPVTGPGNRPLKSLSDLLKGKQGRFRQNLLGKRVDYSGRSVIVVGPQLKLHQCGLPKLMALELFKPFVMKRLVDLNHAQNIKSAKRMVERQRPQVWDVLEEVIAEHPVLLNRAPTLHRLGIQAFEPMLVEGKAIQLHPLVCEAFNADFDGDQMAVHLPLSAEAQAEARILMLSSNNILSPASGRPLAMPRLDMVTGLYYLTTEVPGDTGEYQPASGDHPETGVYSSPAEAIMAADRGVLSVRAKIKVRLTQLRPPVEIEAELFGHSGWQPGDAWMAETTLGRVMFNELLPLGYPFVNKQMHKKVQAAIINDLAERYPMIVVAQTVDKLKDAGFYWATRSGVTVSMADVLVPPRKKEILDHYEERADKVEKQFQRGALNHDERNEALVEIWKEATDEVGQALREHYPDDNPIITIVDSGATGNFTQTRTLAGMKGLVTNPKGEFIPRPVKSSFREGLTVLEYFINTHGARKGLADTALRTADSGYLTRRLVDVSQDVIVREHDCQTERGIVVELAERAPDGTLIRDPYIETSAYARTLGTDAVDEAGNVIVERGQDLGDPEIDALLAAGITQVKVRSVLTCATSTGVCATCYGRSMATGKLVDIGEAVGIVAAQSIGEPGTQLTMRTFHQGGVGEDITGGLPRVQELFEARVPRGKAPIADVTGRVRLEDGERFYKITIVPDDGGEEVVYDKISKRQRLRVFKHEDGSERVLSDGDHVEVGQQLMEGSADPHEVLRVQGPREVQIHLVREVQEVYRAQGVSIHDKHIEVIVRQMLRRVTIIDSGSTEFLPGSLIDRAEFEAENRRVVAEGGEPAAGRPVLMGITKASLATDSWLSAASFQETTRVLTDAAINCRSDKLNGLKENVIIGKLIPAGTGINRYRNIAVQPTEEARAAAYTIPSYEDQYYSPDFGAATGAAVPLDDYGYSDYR
T1 sequence (P9WGY5 whole entry, chain 4 of 4): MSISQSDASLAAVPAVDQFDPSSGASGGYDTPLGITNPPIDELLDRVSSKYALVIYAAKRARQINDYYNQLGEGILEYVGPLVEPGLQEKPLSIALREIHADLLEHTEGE

B1: TMR-labelled Mtb σ^E used in EMSA and anisotropy assays (natural protein)
chain: MELLGGPRVGNTESQLCVADGDDLPTYCSANSEDLNITTITTLSPTSMSHPQQVRDDQWVEPSDQLQGTAVFDATGDKATMPSWDELVRQHADRVYRLAYRLSGNQHDAEDLTQETFIRVFRSVQNYQPGTFEGWLHRITTNLFLDMVRRRARIRMEALPEDYDRVPADEPNPEQIYHDARLGPDLQAALASLPPEFRAAVVLCDIEGLSYEEIGATLGVKLGTVRSRIHRGRQALRDYLAAHPEHGECAVHVNPVR
notes: also called TMR-labelled σ^E; labelled σ^E
- fractional occupancy relative to RPo, at RPitc (sigB): ~93%
- fractional occupancy relative to RPo, at TEC+15 (sigB): 55%
- fractional occupancy relative to RPo, at TEC+23 (sigB): 47%
- fractional occupancy relative to RPo, at TEC+27 (sigB): 45%
- fractional occupancy relative to RPo, at TEC+84 (sigB): 38%

B2: TMR-labelled Mtb σ^F (wild type, labelled at the natural cysteine, residue 47 of σ2) (natural protein)
chain: MTARAAGGSASRANEYADVPEMFRELVGLPAGSPEFQRHRDKIVQRCLPLADHIARRFEGRGEPRDDLIQVARVGLVNAAVRFDVKTGSDFVSFAVPTIMGEVRRHFRDNSWSVKVPRRLKELHLRLGTATADLSQRLGRAPSASELAAELGMDRAEVIEGLLAGSSYHTLSIDSGGGSDDDARAITDTLGDVDAGLDQIENREVLRPLLEALPERERTVLVLRFFDSMTQTQIAERVGISQMHVSRLLAKSLARLRDQLE
notes: also called TMR-labelled σ^F; σ^F labelled with TMR at region 2
- fractional occupancy relative to RPo, at RPitc (usfXP1): ~96%
- fractional occupancy relative to RPo, at TEC+17 (usfXP1): 89%
- fractional occupancy relative to RPo, at TEC+23 (usfXP1): 87%
- fractional occupancy relative to RPo, at TEC+28 (usfXP1): 83%
- fractional occupancy relative to RPo, at TEC+64 (usfXP1): 82%

B3: Alexafluor-488 labelled Mtb σ^A (natural protein)
chain: MAATKASTATDEPVKRTATKSPAASASGAKTGAKRTAAKSASGSPPAKRATKPAARSVKPASAPQDTTTSTIPKRKTRAAAKSAAAKAPSARGHATKPRAPKDAQHEAATDPEDALDSVEELDAEPDLDVEPGEDLDLDAADLNLDDLEDDVAPDADDDLDSGDDEDHEDLEAEAAVAPGQTADDDEEIAEPTEKDKASGDFVWDEDESEALRQARKDAELTASADSVRAYLKQIGKVALLNAEEEVELAKRIEAGLYATQLMTELSERGEKLPAAQRRDMMWICRDGDRAKNHLLEANLRLVVSLAKRYTGRGMAFLDLIQEGNLGLIRAVEKFDYTKGYKFSTYATWWIRQAITRAMADQARTIRIPVHMVEVINKLGRIQRELLQDLGREPTPEELAKEMDITPEKVLEIQQYAREPISLDQTIGDEGDSQLGDFIEDSEAVVAVDAVSFTLLQDQLQSVLDTLSEREAGVVRLRFGLTDGQPRTLDEIGQVYGVTRERIRQIESKTMSKLRHPSRSQVLRDYLD
notes: also called AF488 labelled σ^A; σ^A-488
- fractional occupancy relative to RPo, at RPitc (sinP3): ~95%
- fractional occupancy relative to RPo, at TEC+16 (sinP3): 77%
- fractional occupancy relative to RPo, at TEC+23 (sinP3): 72%
- fractional occupancy relative to RPo, at TEC+29 (sinP3): 63%
- fractional occupancy relative to RPo, at TEC+59 (sinP3): 49%
